Assay results taken from US20220112288A1 (published 2022).

Columns and labels:
[1] = biological target: T1, human CD4 on the surface of SKW3 cells or human PBMCs (human, UniProt P01730 26-458); experiment: FACS confirmation, supernatant on human PBMCs, anti-mouse Fc A647
T1 construct: whole, on cells; SKW3 CD4 knockout cells served as the negative cell line; also called hCD4; SKW3 WT
Protocol: (§1) FACS Confirmation screens were performed for primary screening positive hybridomas using human PBMCs in addition to SKW3/SKW3 CD4 KO cell lines. PBMCs were thawed and resuspended to 8E6/mL in FACS buffer. […] PBMCs were added to the 96 well plates (25 μL/well) and incubated at 4° C. for 30 minutes. […] Cells were washed twice before acquired by IQUE3 Flow Cytometer and analyzed with FORECYT software (Sartorius). Primary parameter used to assess confirmation was CD4 positive percent of viable cells. […] SKW3 gMFI binding was used as secondary parameter to assess confirmation.

[2] = biological target: T1, human CD4 on the surface of SKW3 cells …; experiment: FACS confirmation, supernatant on human PBMCs, anti-mouse Fc A647, CD4+ gate
Protocol: as §1

[3] = biological target: T1, human CD4 on the surface of SKW3 cells …; experiment: FACS confirmation, supernatant on SKW3 WT cells, anti-mouse Fc A647; background gMFI 3300
Protocol: as §1

[4] = biological target: T1, human CD4 on the surface of SKW3 cells …; experiment: FACS confirmation, supernatant on SKW3 WT cells, anti-human kappa FITC; background gMFI 2500
[5] = biological target: T1, human CD4 on the surface of SKW3 cells …; experiment: FACS primary screen, non-clonal hybridoma supernatant, SKW3 vs SKW3 CD4 KO cells, anti-mouse Fc A647
Protocol: (§2) FACS cell binding. αCD4 antibody producing hybridomas were identified by cell surface CD4 binding using FACS. For primary screening SKW3 (human T-ALL) was used as the CD4 positive cell line and SKW3 CD4 knockout (KO) as the negative cell line, respectively. SKW3 KO cells were labeled with Tag-it Violet (BioLegend) at RT for 15 min. After removing extra dye by washing cells with FACS buffer (1% BSA/1 mM EDTA/0.05% NaN3 in PBS) equal number of SKW3 and labeled SKW3 CD4 KO cells were combined, washed, and resuspended in FACS buffer at 8E6 cells/6 mL. […] Cells (˜20K/15 μL/well) were added to the supernatant and incubated at 4° C. for 30 minutes. […] Cells were washed twice before acquired by IQUE3 Flow Cytometer and analyzed with FORECYT software (Sartorius). Positive wells were selected with the following criteria: Over 2-fold selective binding to SKW3 cell line relative to SKW3 CD4 KO with over 10% signal above background binding with anti-human Kappa. Hybridomas from primary screening positive wells were transferred to 96 well plates.

[6] = biological target: T1, human CD4 on the surface of SKW3 cells …; experiment: FACS primary screen, non-clonal hybridoma supernatant, SKW3 vs SKW3 CD4 KO cells, anti-human kappa FITC
Protocol: as §2

[7] = biological target: T1, human CD4 on the surface of SKW3 cells …; experiment: FACS binning on SKW3 cells; competitor OKT4-Alexa Fluor 488 (its signal read); background 2163, max binding 8200
Protocol: (§3) αCD4 containing hybridoma supernatants were binned against three comparator antibodies by FACS using SKW3 cells, which endogenously express human CD4 protein. Briefly, SKW3 cells were incubated with saturated hybridoma supernatant for 30 minutes at 4° C.

[8] = biological target: T1, human CD4 on the surface of SKW3 cells …; experiment: FACS binning on SKW3 cells; competitor RPA-T4-PE-Dazzle 594 (its signal read); background 783, max binding 15000
Protocol: as §3

huCD4-HIS = biological target: T2, huCD4-HIS (human, UniProt P01730 26-390, limits assumed); experiment: ELISA binning; competitor ibalizumab; 100 ng/mL huCD4-HIS, anti-HIS HRP detection; background 45, max binding 3000000
T2 construct: not shown: HIS tag

[9] = biological target: T1, human CD4 on the surface of SKW3 cells …; experiment: FACS binning on SKW3 cells; competitor OKT4a, anti-human A647 secondary (its signal read); background 5000, max binding 35000
Protocol: as §3

PBMCs, anti-mFc 647 CD4+ gate - RL1 Binding [2]	SKW3 WT anti-mFc 647, gMFI [3] [gMFI]	SKW3 WT anti-hu Kappa FITC, gMFI [4] [gMFI]	SKW3 WT vs KO anti-mFc-647 [5] [ratio]	SKW3 WT vs KO anti-hKappa-FITC [6] [ratio]	OKT4 A488 signal [7]	RPA-T4-PE-Dazzle 594 signal [8]	Ibalizumab ELISA binning signal (huCD4-HIS)	OKT4a anti-hu A647 Secondary signal [9]	Binder	PBMCs, anti-mFc 647 CD4+ Percent Bound of Viable [1] [%]
317000	30900	7260	8.4	3.1	3320	13500	335000	41500	75110_02E08A (antibody, V domains shown, Tested here as non-clonal hybridoma supernatant from AlivaMab Mouse Kappa mice (detected with anti-mouse Fc and anti-human kappa)) VH: QVQLQESGPGLVKPSETLSLTCTVSGGSISTYYWTWIRQPAGKGLEWIGRVYTSGDTNYNPSLKSRVAMSLDTSKNQFSLKLSSVTAADTAVYYCARDSGALYSWNYGDAFDIWGQGTMVTVSS VL: DIQMTQSPSAMSASVGDRVTITCRASQDISNYLAWFQQKPGKVPKRLIYAASSLQSGVPSRFSGSGSGTEFTLTISSLQPEDFATYYCLQHNSYPRTFGQGTKVEIK	31
304000	22300	5810	4.8	2	2990	14800	1.99e+06	44600	75110_09G15A (antibody, V domains shown, Tested here as non-clonal hybridoma supernatant from AlivaMab Mouse Kappa mice (detected with anti-mouse Fc and anti-human kappa)) VH: EVQLVESGGGLVQPGGSLRLSCAASGFTFSDYWMSWVRQAPGKGLEWVANINQDGSEKYSVDSVKGRFTISRDNAKNSLYLQMNSLRAEDTAIFYCAREGGQWLALDYWGQGTLVTVSS VL: DIQMTQSPSSVSASVGDRVTITCRASQGISSWLAWYQQKPGKAPKLLIYGASSLQSGVPSRFSGSGSGTDFTLTINSLQPEDFTTYYCQQANIFPWTFGQGTKVEIK	28
181000	16300	5130	3.9	1.5	3120	15900	2.57e+06	37400	75110_05L07A (antibody, V domains shown, Tested here as non-clonal hybridoma supernatant from AlivaMab Mouse Kappa mice (detected with anti-mouse Fc and anti-human kappa)) VH: EVQLVESGGGLVQPGGSLRLSCAASGFTFSSYWMSWVRQAPGKGLEWVANINQDGSDKYYVDSVKGRFTISRDNVKNSLYLQINSLRAEDTAVYYCAREGGQWLTLDYWGQGTLVTVSS VL: not shown	29
321000	32300	5930	7.5	2.4	2140	14700	1.26e+06	43700	75110_01J09A (antibody, V domains shown, Tested here as non-clonal hybridoma supernatant from AlivaMab Mouse Kappa mice (detected with anti-mouse Fc and anti-human kappa)) VH: EVQLVESGGGLVQPGGSLRLSCVASGFTFSSYWMSWVRQAPGKGLEWVANTKEDGSDKYYVDSVKGRFTICRDNAKNSLYLQMNSLRAEDTAVYYCAREGGQWLALDYWGQGTLVTVSS VL: DIQMTQSPSSVSASVGDRVTINCRASQGISSWLAWYQQKPGKAPNLLIFGASSLQSGVPSRFSGSGFGTDFSLTITTLQPEDFATYHCQQANSFPWTFGQGTKVEIK	31
266000	18700	5920	8	2.4	9510	19200	865000	6980	75110_03C01A (antibody, V domains shown, Tested here as non-clonal hybridoma supernatant from AlivaMab Mouse Kappa mice (detected with anti-mouse Fc and anti-human kappa)) VH: QVQLQQWGAGLLKPSETLSLTCAVYGGSFSGYYWSWIRQSPGKGLEWIGEINQSGSTNYNPSLKSRVTISVDTSKDQFSLKLSSVTAADTAVYYCARVINWFDSWGQGSLVTVSS VL: DIQMTQSPSSVSASVGDRVTITCRASQGISSWLAWYQQKPGNAPKLLIYDASSFQSGVPSRFSGSGSGTDFTLTISSLQTEDFATYYCQQANSFPYTFGQGTKLEIK	28
287000	24800	5880	5.4	2.2	2700	14700	1.76e+06	46600	75110_09N20A (antibody, V domains shown, Tested here as non-clonal hybridoma supernatant from AlivaMab Mouse Kappa mice (detected with anti-mouse Fc and anti-human kappa)) VH: EVQLVESGGGLVQPGGSLRLSCAASGFTFSSYWMSWVRQAPGKGLEWVANINEDGSEKYYVDSVKGRFTISRDNAKNSLYLQMNSLRAEDTAVYYCVREGGQWLALDYWGQGTLVTVSS VL: DIQMTQSPSSVSASVGDRVTITCRASQGISSWLAWYQQKPGKAPKLLIYAASSLQSGVPSSFSGSGSGTDFTLTINSLQPEDFATYYCQQANSFPWTFGQGTKVAIK	33
264000	18000	5360	4	2	4020	14800	2.2e+06	42000	75110_12H17A (antibody, V domains shown, Tested here as non-clonal hybridoma supernatant from AlivaMab Mouse Kappa mice (detected with anti-mouse Fc and anti-human kappa)) VH: EVQLVESGGGLVQPGGSLRLSCAASGFTFSDYWMSWVRQAPGKGLEWVANIKEDGNEKYYVDSVKGRFTISRDNAKNSLFLQMNSLRAEDTAVYYCAREGGQWLALDYWGQGALVTVSS VL: DIQMTQSPSSVSASVGDRVTITCRASQGISSWLAWYQQKPGKAPKFLISGASSLQSGVPSRFTGSGSGTDFTLTISSLQPEDFATYYCQQANSFPWTFGQGTKVEIK	29
244000	22800	6550	5.2	2.4	2620	14600	1.74e+06	34400	75110_12H19A (antibody, V domains shown, Tested here as non-clonal hybridoma supernatant from AlivaMab Mouse Kappa mice (detected with anti-mouse Fc and anti-human kappa)) VH: EVQLVESGGGLVQPGGSLRLSCAASGFTFSSYWMSWVRQAPGQGLEWVANINEDGNEKYHVDSVKGRLTISRDNAKNSLYLQMNSLRGVDTAVYFCAREGGQWLALDYWGQGALVTVSS VL: DIQMTQSPSSVSASVGDRVSITCRASQGISSWLAWYQQKPGKAPKLLIYGASGLQSGVPSRFSGSGSGTDFTLTISSLQPEDFATYYCQQANSFPWTFGQGTKVEIK	27
229000	27300	8010	4.2	2.5	9750	20700	885000	5720	75110_03L12A (antibody, V domains shown, Tested here as non-clonal hybridoma supernatant from AlivaMab Mouse Kappa mice (detected with anti-mouse Fc and anti-human kappa)) VH: QVQLQQWGAGLLKPSETLSLTCAVYGGSFSGYYWSWIRQPPGKGLEWIGEINHSGSTNYNPSLKSRVTISVDTSENQFSLTLISVTAADTAVYYCVRLINWFDPWGQGTLVTVSS VL: DIQMTQSPSSVSASVGDRVTITCRASQDISNWLAWYQQKPGKAPKLLIFAASSLQSGVPSRFSGSGSGTDFTLTISSLQPDDFATYYCQQANSFPYTFGQGTNLGIK	28
274000	22600	6160	6.7	2.3	3170	14900	1.95e+06	43400	75110_04B08A (antibody, V domains shown, Tested here as non-clonal hybridoma supernatant from AlivaMab Mouse Kappa mice (detected with anti-mouse Fc and anti-human kappa)) VH: QVQLVESGGGVVQPGRSLRLSCTASGFNFINYGIHWVRQAPGKGLEWVTIIWYDGSKKYYADSVKGRFAISRDNSKNTLYLQMNSLRAEDTAVYYCAREDDWNDGLAYWGQGTLVTVSS VL: AIQMTQSPSSLSASVGDRVTITCRASQDIRNDLGWYQQKPGKAPNLLIYAASNLQSGVPSRFSGSGSGTDFTLTISSLQPEDFATYYCLQDSNYPRTFGQGTKVEIK	29
283000	27600	7020	3.4	2.1	2850	15000	1.88e+06	45900	75110_10L22A (antibody, V domains shown, Tested here as non-clonal hybridoma supernatant from AlivaMab Mouse Kappa mice (detected with anti-mouse Fc and anti-human kappa)) VH: EVQLVESGGGLVQPGGSLRLSCAASGFTFSSYDMHWVRQATGKGLEWVSTIGTAGDTYYPGSVKGRFTISRENAKNSLYLQMNGLRAGDTAVYYCARGNYFYYGVDVWGQGTTVTVSS VL: not shown	31
